According to patent CN112125972A:

What was measured:
Test in all cases: double-antibody sandwich ELISA, R001 as detection antibody, against reference products of the different expression systems
[1] = molecular target: I1.16 HPV16 VLPs (Human papillomavirus type 16) (UniProt P03101)
[2] = molecular target: Y1.16 HPV16 VLPs (Human papillomavirus type 16) (UniProt P03101)
[3] = molecular target: E2.16 HPV16 VLPs (Human papillomavirus type 16) (UniProt P03101)
[4] = molecular target: Y2.16 HPV16 VLPs (Human papillomavirus type 16) (UniProt P03101)
[5] = molecular target: E1.16 HPV16 VLPs (Human papillomavirus type 16) (UniProt P03101)

Measured: 抗原/蛋白比值

B1: HPV 16 R001 (antibody, V domains shown)
VH: QSVKESEGRLVTPGTPLTLTCTASGFTMSRYHMTWVRQAPGKGLEWIGIIYARNSDTYYANWAKGRFTISKTSTTVDLKITSPTIEDTATYFCARVDSDSSGAFDRLDLWGQGTLVTVSS
VL: DPMLTQTAASVEVAVGGTVTIKCQASQSIGGYLSWYQQKPGQRPKLLIYRASTLASGVPSRFKGSGSGTEYTLTFSGVECADAAAYYCQQGYTSSDINNAFGGGTEVVVK
1: all assays above
